Target: T1, Hsp42, yeast small heat shock protein (yeast, UniProt Q12329 1-375)
T1 construct: Hsp42, small heat shock protein of the yeast cytosol; also called sHsp; source: purified as described [28]; copies: 24
Test: co-sedimentation; preassembled NM fibers (5 µM NM monomer) incubated 60 min at 25°C with Hsp26 or Hsp42 (10 µM); fibers recovered at 16,000 g for 30 min; pellet with or without a wash step, SDS-PAGE, Coomassie
Conditions: both partners purified

T1 sequence (Q12329 whole entry): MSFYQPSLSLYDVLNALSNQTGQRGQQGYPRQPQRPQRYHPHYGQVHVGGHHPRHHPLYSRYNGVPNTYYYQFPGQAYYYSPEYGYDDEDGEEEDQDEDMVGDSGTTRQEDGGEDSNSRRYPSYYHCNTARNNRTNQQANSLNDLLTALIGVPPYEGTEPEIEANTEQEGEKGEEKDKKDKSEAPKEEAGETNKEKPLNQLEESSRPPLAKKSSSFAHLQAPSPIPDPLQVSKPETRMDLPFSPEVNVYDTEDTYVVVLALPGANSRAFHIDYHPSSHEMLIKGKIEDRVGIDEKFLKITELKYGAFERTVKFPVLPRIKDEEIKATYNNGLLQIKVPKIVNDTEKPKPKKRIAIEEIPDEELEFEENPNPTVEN

B1: NM, the prion domain (N and M domains) of the yeast translation termination factor Sup35, untagged (domain or fragment, UniProt P05453 1-253, looked up)
chain: MSDSNQGNNQQNYQQYSQNGNQQQGNNRYQGYQAYNAQAQPAGGYYQNYQGYSGYQQGGYQQYNPDAGYQQQYNPQGGYQQYNPQGGYQQQFNPQGGRGNYKNFNYNNNLQGYQAGFQPQSQGMSLNDFQKQQKQAAPKPKKTLKLVSSSGIKLANATKKVGTKPAESDKKEEEKSAETKEPTKEPTKVEEPVKKEEKPVQTEEKTEEKSELPKVEDLKISESTHNTNNANVTSADALIKEQEEEVDDEVVND
notes: Sup35, yeast translation termination factor; N domain (amino acids 1-123) plus M domain (amino acids 124-253) = NM; One construct used in several states: soluble NM, molten oligomers and preassembled amyloid fibers (assembled at 25°C with agitation in assembly buffer); With Hsp26 and Hsp42 it stood as preassembled fibers; also called untagged NM; NM fibers; source: purified as described [48]
Question: Does B1 bind?
Answer: binds

Reference: publication PMC3378601 (PLoS Biology, 2012)
